Like-named read-outs stand apart in the source and are kept apart here. Blank lines part the entries; values can stand above or below the substance they belong to.
Key:
[1] = biological target: Recombinant HGF receptor (c-met)/fc chimera (UniProt P08581); test: SPR; Biacore 2000, 25°C; c-Met/Fc chimera amine-coupled to a CM5 chip; supernatant of buffy coat (before or after haemolysis by freezing) or serum of one donor, diluted 1:20 in PBS pH 7.4
[2] = biological target: Recombinant HGF receptor (c-met)/fc chimera (UniProt P08581); test: SPR; Biacore 2000, 25°C; c-Met/Fc chimera amine-coupled to a CM5 chip; medium conditioned by a healthy donor's blood (endogenous HGF, positive control) injected
[3] = biological target: Recombinant HGF receptor (c-met)/fc chimera (UniProt P08581); test: as above; remark: listed apart in the source
[4] = biological target: Recombinant HGF receptor (c-met)/fc chimera (UniProt P08581); test: SPR; Biacore 2000, 25°C; c-Met/Fc chimera amine-coupled (EDC/NHS) to a CM5 chip (22113 or 22377 RU); reconstituted rHGF injected at the stated concentrations; response read after the end of the injection (dissociation phase)

Sequence of UniProt P08581 (P08581 25-932, change not shown): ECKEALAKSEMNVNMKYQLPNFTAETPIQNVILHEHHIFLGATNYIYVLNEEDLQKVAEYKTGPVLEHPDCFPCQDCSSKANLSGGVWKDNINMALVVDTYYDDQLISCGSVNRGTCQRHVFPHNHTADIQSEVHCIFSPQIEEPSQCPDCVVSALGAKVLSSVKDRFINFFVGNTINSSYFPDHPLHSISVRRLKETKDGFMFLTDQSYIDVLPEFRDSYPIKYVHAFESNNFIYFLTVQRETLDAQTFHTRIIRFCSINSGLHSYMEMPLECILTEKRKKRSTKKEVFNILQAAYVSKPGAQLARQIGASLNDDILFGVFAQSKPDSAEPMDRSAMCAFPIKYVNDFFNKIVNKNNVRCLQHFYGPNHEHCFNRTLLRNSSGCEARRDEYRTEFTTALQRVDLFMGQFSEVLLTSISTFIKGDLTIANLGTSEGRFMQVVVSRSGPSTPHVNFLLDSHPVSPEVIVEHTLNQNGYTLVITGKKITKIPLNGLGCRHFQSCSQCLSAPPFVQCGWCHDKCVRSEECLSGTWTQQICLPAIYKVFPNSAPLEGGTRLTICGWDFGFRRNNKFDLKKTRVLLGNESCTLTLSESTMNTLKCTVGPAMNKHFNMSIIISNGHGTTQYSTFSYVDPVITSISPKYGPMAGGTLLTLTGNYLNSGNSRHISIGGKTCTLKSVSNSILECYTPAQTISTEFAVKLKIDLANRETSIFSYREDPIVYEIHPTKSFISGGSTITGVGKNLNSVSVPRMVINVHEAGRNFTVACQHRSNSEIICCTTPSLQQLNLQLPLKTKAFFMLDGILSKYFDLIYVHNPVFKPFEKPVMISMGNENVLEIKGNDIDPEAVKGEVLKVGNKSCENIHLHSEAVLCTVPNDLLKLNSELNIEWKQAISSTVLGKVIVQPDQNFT

- SPR response [2]: 403 RU
- SPR response [3]: 209 RU
Substance: Endogenous HGF from human blood (ligand)
- SPR response, buffy coat supernatant 1:20 [1]: 247 RU
- SPR response, haemolysed buffy coat 1:20 [1]: 163 RU
- SPR response, serum 1:20 [1]: 317 RU

- SPR response at 2.5 μg/ml after 15 h at room temperature [4]: 181 RU
- SPR response at 2.5 μg/ml after 15 h at −20°C and thawing [4]: 94 RU
- SPR response at 2.5 μg/ml, freshly reconstituted [4]: 194 RU
Substance: Recombinant HGF, R&D carrier-free, lot GJ174034 (from UniProt P14210 32-728) (ligand)

- SPR response at 0.8 μg/ml [4]: 120 RU
- SPR response at 4 μg/ml [4]: 201 RU
- SPR response at 5 μg/ml [4]: 265 RU
Substance: Recombinant human hepatocyte growth factor, lot GJ175031 (from UniProt P14210 32-728) (ligand)

From article PMC2562019
